Test results as given in article PMC3979393 (2014).
Substitutions are numbered along the chain they refer to. Names and notes keep the numbering of the source. Values belong to the binder of their own block, whether it stands above or below them.

Columns and labels:
[1] = anti-Myc blot of surface, intracellular and lysate fractions; conditions: glycan lost; control: wild-type DDR1b
[2] = cell-surface biotinylation, avidin pulldown, anti-Myc blot; conditions: glycan lost; control: wild-type DDR1b, no collagen
[3] = BS3 cross-linking of lysates, IP, anti-DDR1 blot; conditions: glycan lost; control: wild-type DDR1b, no collagen
[4] = reversible biotinylation endocytosis assay, COS1; conditions: glycan lost; control: wild-type DDR1b
Rat tail collagen type I = Rat tail collagen type I (rat, UniProt P02454 152-1207; P02466 86-1125); test: ELISA
Sequence of Rat tail collagen type I (P02454 152-1207, chain 1 of 2): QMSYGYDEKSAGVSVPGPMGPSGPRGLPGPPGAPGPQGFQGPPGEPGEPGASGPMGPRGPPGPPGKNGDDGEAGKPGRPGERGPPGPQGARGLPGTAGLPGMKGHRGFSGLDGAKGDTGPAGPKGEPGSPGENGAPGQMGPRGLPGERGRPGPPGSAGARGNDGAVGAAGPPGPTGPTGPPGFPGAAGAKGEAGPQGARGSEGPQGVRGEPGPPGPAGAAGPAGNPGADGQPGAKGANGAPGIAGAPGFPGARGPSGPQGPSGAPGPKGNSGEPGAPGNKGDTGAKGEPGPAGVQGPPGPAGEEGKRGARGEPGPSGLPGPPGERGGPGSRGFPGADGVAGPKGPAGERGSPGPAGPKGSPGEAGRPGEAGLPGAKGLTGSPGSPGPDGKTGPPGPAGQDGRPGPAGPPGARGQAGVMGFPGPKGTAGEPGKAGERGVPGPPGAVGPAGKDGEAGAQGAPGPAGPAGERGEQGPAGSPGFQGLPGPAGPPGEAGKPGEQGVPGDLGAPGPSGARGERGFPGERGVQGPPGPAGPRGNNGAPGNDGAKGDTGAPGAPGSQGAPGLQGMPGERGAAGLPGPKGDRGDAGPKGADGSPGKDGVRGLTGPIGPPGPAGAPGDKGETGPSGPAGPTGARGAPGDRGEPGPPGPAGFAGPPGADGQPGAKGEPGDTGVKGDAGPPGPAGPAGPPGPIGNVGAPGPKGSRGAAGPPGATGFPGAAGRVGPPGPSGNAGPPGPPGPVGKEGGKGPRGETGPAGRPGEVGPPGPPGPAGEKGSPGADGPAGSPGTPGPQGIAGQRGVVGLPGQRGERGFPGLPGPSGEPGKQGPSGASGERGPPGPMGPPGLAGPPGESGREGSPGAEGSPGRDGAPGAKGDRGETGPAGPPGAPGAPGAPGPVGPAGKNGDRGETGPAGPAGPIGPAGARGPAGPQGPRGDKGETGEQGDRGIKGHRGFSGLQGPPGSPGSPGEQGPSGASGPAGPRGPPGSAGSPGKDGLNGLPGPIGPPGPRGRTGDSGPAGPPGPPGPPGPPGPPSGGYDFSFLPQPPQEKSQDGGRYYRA
Sequence of Rat tail collagen type I (P02466 86-1125, chain 2 of 2): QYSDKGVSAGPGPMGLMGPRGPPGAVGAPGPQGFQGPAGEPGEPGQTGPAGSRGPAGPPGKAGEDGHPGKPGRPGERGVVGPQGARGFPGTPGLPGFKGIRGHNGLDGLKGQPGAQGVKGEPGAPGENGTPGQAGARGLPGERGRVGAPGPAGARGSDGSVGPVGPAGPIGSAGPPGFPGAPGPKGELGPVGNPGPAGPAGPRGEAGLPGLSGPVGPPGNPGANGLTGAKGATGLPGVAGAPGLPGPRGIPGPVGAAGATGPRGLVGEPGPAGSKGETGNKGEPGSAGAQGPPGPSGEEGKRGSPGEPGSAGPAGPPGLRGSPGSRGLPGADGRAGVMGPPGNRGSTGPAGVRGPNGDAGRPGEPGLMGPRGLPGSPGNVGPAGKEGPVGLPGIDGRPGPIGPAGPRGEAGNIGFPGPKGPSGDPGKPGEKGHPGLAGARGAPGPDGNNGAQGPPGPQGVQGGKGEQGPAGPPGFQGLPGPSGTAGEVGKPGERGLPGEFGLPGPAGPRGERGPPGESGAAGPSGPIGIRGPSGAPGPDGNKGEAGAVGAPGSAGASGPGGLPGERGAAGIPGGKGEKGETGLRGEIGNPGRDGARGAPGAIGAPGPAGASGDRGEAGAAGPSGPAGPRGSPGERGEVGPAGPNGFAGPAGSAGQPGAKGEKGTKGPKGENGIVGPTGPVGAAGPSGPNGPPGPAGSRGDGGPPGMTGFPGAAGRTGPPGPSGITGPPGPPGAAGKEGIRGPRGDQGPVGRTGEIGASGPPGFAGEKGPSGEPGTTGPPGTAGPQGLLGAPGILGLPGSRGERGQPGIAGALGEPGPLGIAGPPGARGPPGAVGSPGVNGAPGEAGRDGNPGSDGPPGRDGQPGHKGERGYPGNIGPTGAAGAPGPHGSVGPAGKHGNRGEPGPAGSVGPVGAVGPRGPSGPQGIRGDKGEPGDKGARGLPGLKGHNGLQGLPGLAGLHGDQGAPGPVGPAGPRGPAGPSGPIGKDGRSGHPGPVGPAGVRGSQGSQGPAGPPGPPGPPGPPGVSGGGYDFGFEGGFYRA

B1: Discoidin domain receptor 1 (DDR1b): N211Q (protein)
parent chain: MGPEALSSLLLLLLVASGDADMKGHFDPAKCRYALGMQDRTIPDSDISASSSWSDSTAARHSRLESSDGDGAWCPAGSVFPKEEEYLQVDLQRLHLVALVGTQGRHAGGLGKEFSRSYRLRYSRDGRRWMGWKDRWGQEVISGNEDPEGVVLKDLGPPMVARLVRFYPRADRVMSVCLRVELYGCLWRDGLLSYTAPVGQTMYLSEAVYLNDSTYDGHTVGGLQYGGLGQLADGVVGLDDFRKSQELRVWPGYDYVGWSNHSFSSGYVEMEFEFDRLRAFQAMQVHCNNMHTLGARLPGGVECRFRRGPAMAWEGEPMRHNLGGNLGDPRARAVSVPLGGRVARFLQCRFLFAGPWLLFSEISFISDVVNNSSPALGGTFPPAPWWPPGPPPTNFSSLELEPRGQQPVAKAEGSPTAILIGCLVAIILLLLLIIALMLWRLHWRRLLSKAERRVLEEELTVHLSVPGDTILINNRPGPREPPPYQEPRPRGNPPHSAPCVPNGSALLLSNPAYRLLLATYARPPRGPGPPTPAWAKPTNTQAYSGDYMEPEKPGAPLLPPPPQNSVPHYAEADIVTLQGVTGGNTYAVPALPPGAVGDGPPRVDFPRSRLRFKEKLGEGQFGEVHLCEVDSPQDLVSLDFPLNVRKGHPLLVAVKILRPDATKNARNDFLKEVKIMSRLKDPNIIRLLGVCVQDDPLCMITDYMENGDLNQFLSAHQLEDKAAEGAPGDGQAAQGPTISYPMLLHVAAQIASGMRYLATLNFVHRDLATRNCLVGENFTIKIADFGMSRNLYAGDYYRVQGRAVLPIRWMAWECILMGKFTTASDVWAFGVTLWEVLMLCRAQPFGQLTDEQVIENAGEFFRDQGRQVYLSRPPACPQGLYELMLRCWSRESEQRPPFSQLHRFLAEDALNTV
expression_or_secretion [1]: no change
localisation_or_trafficking [2]: no change
oligomerisation [3]: increases
localisation_or_trafficking [4]: decreases

Kd (Rat tail collagen type I): 4.75 nM
B2: DDR1b ectodomain (ECD) harboring an IgG2 Fc fragment at the C-terminal end, N211Q (Fc fusion)
chain: DADMKGHFDPAKCRYALGMQDRTIPDSDISASSSWSDSTAARHSRLESSDGDGAWCPAGSVFPKEEEYLQVDLQRLHLVALVGTQGRHAGGLGKEFSRSYRLRYSRDGRRWMGWKDRWGQEVISGNEDPEGVVLKDLGPPMVARLVRFYPRADRVMSVCLRVELYGCLWRDGLLSYTAPVGQTMYLSEAVYLQDSTYDGHTVGGLQYGGLGQLADGVVGLDDFRKSQELRVWPGYDYVGWSNHSFSSGYVEMEFEFDRLRAFQAMQVHCNNMHTLGARLPGGVECRFRRGPAMAWEGEPMRHNLGGNLGDPRARAVSVPLGGRVARFLQCRFLFAGPWLLFSEISFISDVVNNSSPALGGTFPPAPWWPPGPPPTNFSSLELEPRGQQPVAKAEGSPT

Kd (Rat tail collagen type I): 3.33 nM
B3: DDR1b ectodomain (ECD) harboring an IgG2 Fc fragment at the C-terminal end, wild type (Fc fusion)
chain: B2 chain with Q193N
